Measurements taken from US10064926B2, “Peptides and combination of peptides for use in immunotherapy against hepatocellular carcinoma (HCC) and other cancers” (Immatics biotechnologies GmbH, priority 2014, dated 2018).

target: HLA-A*02 (Homo sapiens, UniProt P04439, D140Y/D185E/D98H/E176V/E277Q/G131W/G231S/I119V/I121R/I166T/I218V/N151K/N90K/P208A/P217A/Q86G/Q94H/R138H/R169H); experiment: UV-ligand exchange / peptide binding to MHC class I (beta2m ELISA); conditions: Table 10A; peptide exchange yield, UV-ligand exchange, β2m ELISA
Description: Candidate peptides for T cell based therapies according to the present invention were further tested for their MHC binding capacity (affinity). The individual peptide-MHC complexes were produced by UV-ligand exchange, where a UV-sensitive peptide is cleaved upon UV-irradiation, and exchanged with the peptide of interest as analyzed. Only peptide candidates that can effectively bind and stabilize the peptide-receptive MHC molecules prevent dissociation of the MHC complexes. To determine the yield of the exchange reaction, an ELISA was performed based on the detection of the light chain (β2m) of stabilized MHC complexes. The assay was performed as generally described in Rodenko et al. (Rodenko B, Toebes M, Hadrup S R, van Esch W J, Molenaar A M, Schumacher T N, Ovaa H. Generation of peptide-MHC class I complexes through UV-mediated ligand exchange. Nat Protoc. 2006; 1(3):1120-32).
96 well MAXISorp plates (NUNC) were coated over night with 2 ug/ml streptavidin in PBS at room temperature, washed 4× and blocked for 1 h at 37° C. in 2% BSA containing blocking buffer. Refolded HLA-A*0201/MLA-001 monomers served as standards, covering the range of 15-500 ng/ml. Peptide-MHC monomers of the UV-exchange reaction were diluted 100 fold in blocking buffer. Samples were incubated for 1 h at 37° C., washed four times, incubated with 2 ug/ml HRP conjugated anti-β2m for 1 h at 37° C., washed again and detected with TMB solution that is stopped with […]. Absorption was measured at 450 nm. Candidate peptides that show a high exchange yield (preferably higher than 50%, most preferred higher than 75%) are generally preferred for a generation and production of antibodies or fragments thereof, and/or T cell receptors or fragments thereof, as they show sufficient avidity to the MHC molecules and prevent dissociation of the MHC complexes.

Substance | Peptide exchange (MHC class I binding score)
5 (ALVEQGFTV; listed as Homo sapiens) [compound 5] | ++++ (>=75% = ++++)
8 (KLLEEATISV; listed as Homo sapiens) [compound 8] | +++ (50%-75% = +++)
13 (GLIDTETAMKAV; listed as Homo sapiens) [compound 13] | ++++ (>=75% = ++++)

same assay, conditions: Table 10B; peptide exchange yield; HLA-A*02 peptides

Substance | Peptide exchange (MHC class I binding score)
3 (ILDDNMQKL; listed as Homo sapiens) [compound 3] | “+++” (≥50 = +++)
5 (ALVEQGFTV; listed as Homo sapiens) [compound 5] | “++++” (≥75% = ++++)
8 (KLLEEATISV; listed as Homo sapiens) [compound 8] | “+++” (≥50 = +++)
9 (ALANQKLYSV; listed as Homo sapiens) [compound 9] | “+++” (≥50 = +++)
13 (GLIDTETAMKAV; listed as Homo sapiens) [compound 13] | “++++” (≥75% = ++++)
17 (RVASPTSGV; listed as Homo sapiens) [compound 17] | “+++” (≥50 = +++)
18 (ALYGKTEVV; listed as Homo sapiens) [compound 18] | “+++” (≥50 = +++)
19 (FLEETKATV; listed as Homo sapiens) [compound 19] | “+++” (≥50 = +++)
20 (KLSNVLQQV; listed as Homo sapiens) [compound 20] | “++++” (≥75% = ++++)
21 (QLIEVSSPITL; listed as Homo sapiens) [compound 21] | “++++” (≥75% = ++++)
22 (RIAGIRGIQGV; listed as Homo sapiens) [compound 22] | “++++” (≥75% = ++++)
23 (RLYDPASGTISL; listed as Homo sapiens) [compound 23] | “+++” (≥50 = +++)
24 (SLAEEKLQASV; listed as Homo sapiens) [compound 24] | “+++” (≥50 = +++)
25 (SLDGKAALTEL; listed as Homo sapiens) [compound 25] | “+++” (≥50 = +++)
26 (SLLHTIYEV; listed as Homo sapiens) [compound 26] | “+++” (≥50 = +++)
27 (TLPDFRLPEI; listed as Homo sapiens) [compound 27] | “++++” (≥75% = ++++)
28 (TLQDHLNSL; listed as Homo sapiens) [compound 28] | “+++” (≥50 = +++)
29 (YIQDEINTI; listed as Homo sapiens) [compound 29] | “+++” (≥50 = +++)
30 (YLGEGPRMV; listed as Homo sapiens) [compound 30] | “+++” (≥50 = +++)
31 (YQMDIQQEL; listed as Homo sapiens) [compound 31] | “+++” (≥50 = +++)
32 (ALNAVRLLV; listed as Homo sapiens) [compound 32] | “++++” (≥75% = ++++)
33 (LLHGHIVEL; listed as Homo sapiens) [compound 33] | “+++” (≥50 = +++)

Substance | Peptide exchange (MHC class I binding score)
34 (SLAEGTATV; listed as Homo sapiens) [compound 34] | “+++” (≥50 = +++)
35 (SLQESILAQV; listed as Homo sapiens) [compound 35] | “+++” (≥50 = +++)
36 (ILNVDGLIGV; listed as Homo sapiens) [compound 36] | “+++” (≥50 = +++)
37 (LLLPLLPPLSP; listed as Homo sapiens) [compound 37] | “+++” (≥50 = +++)
38 (ALADVVHEA; listed as Homo sapiens) [compound 38] | “+++” (≥50 = +++)
39 (ALDPKANFST; listed as Homo sapiens) [compound 39] | “+++” (≥50 = +++)
40 (ALLAEGITWV; listed as Homo sapiens) [compound 40] | “+++” (≥50 = +++)
41 (ALLELDEPLVL; listed as Homo sapiens) [compound 41] | “++++” (≥75% = ++++)
42 (ALLGGNVRMML; listed as Homo sapiens) [compound 42] | “+++” (≥50 = +++)
44 (ALQDAIRQL; listed as Homo sapiens) [compound 44] | “++++” (≥75% = ++++)
45 (ALQDQLVLV; listed as Homo sapiens) [compound 45] | “++++” (≥75% = ++++)
46 (AMAEMKVVL; listed as Homo sapiens) [compound 46] | “+++” (≥50 = +++)
47 (FLDTPIAKV; listed as Homo sapiens) [compound 47] | “++” (≥20% = ++)
48 (FLLEQPEIQV; listed as Homo sapiens) [compound 48] | “+++” (≥50 = +++)
49 (FLYPEKDEPT; listed as Homo sapiens) [compound 49] | “++” (≥20% = ++)
50 (FTIPKLYQL; listed as Homo sapiens) [compound 50] | “++” (≥20% = ++)
51 (GLAEELVRA; listed as Homo sapiens) [compound 51] | “++” (≥20% = ++)
52 (GLFNAELLEA; listed as Homo sapiens) [compound 52] | “+++” (≥50 = +++)
53 (GLIHLEGDTV; listed as Homo sapiens) [compound 53] | “+++” (≥50 = +++)
54 (GLLDPNVKSIFV; listed as Homo sapiens) [compound 54] | “+++” (≥50 = +++)
55 (GLYGRTIEL; listed as Homo sapiens) [compound 55] | “+++” (≥50 = +++)
56 (GVLPGLVGV; listed as Homo sapiens) [compound 56] | “+++” (≥50 = +++)

Substance | Peptide exchange (MHC class I binding score)
57 (HLTEAIQYV; listed as Homo sapiens) [compound 57] | “+++” (≥50 = +++)
58 (ILADLNLSV; listed as Homo sapiens) [compound 58] | “++++” (≥75% = ++++)
59 (ILADTFIGV; listed as Homo sapiens) [compound 59] | “+++” (≥50 = +++)
60 (ILSPLSVAL; listed as Homo sapiens) [compound 60] | “++++” (≥75% = ++++)
61 (KIADFELPTI; listed as Homo sapiens) [compound 61] | “++++” (≥75% = ++++)
62 (KIAGTNAEV; listed as Homo sapiens) [compound 62] | “++” (≥20% = ++)
63 (KIDEKNFVV; listed as Homo sapiens) [compound 63] | “+++” (≥50 = +++)
64 (KILEETLYV; listed as Homo sapiens) [compound 64] | “+++” (≥50 = +++)
65 (KLFSGDELLEV; listed as Homo sapiens) [compound 65] | “+++” (≥50 = +++)
66 (KLHEEIDRV; listed as Homo sapiens) [compound 66] | “+++” (≥50 = +++)
67 (KLKETIQKL; listed as Homo sapiens) [compound 67] | “+++” (≥50 = +++)
68 (KLLAATVLLL; listed as Homo sapiens) [compound 68] | “++” (≥20% = ++)
69 (KLLDEVTYLEA; listed as Homo sapiens) [compound 69] | “++++” (≥75% = ++++)
70 (KLLDLETERILL; listed as Homo sapiens) [compound 70] | “++++” (≥75% = ++++)
71 (KLLDNWDSV; listed as Homo sapiens) [compound 71] | “++++” (≥75% = ++++)
72 (KLSEAVTSV; listed as Homo sapiens) [compound 72] | “+++” (≥50 = +++)
74 (KLYDLELIV; listed as Homo sapiens) [compound 74] | “+++” (≥50 = +++)
75 (KQMEPLHAV; listed as Homo sapiens) [compound 75] | “++” (≥20% = ++)
76 (LLADIGGDPFAA; listed as Homo sapiens) [compound 76] | “+++” (≥50 = +++)
77 (LLHEENFSV; listed as Homo sapiens) [compound 77] | “+++” (≥50 = +++)
